According to US20120172306A1, “Use of HASF as a Protective Agent Against Ischemic Tissue Damage” (Duke University, priority 2009, published 2012):

What was measured:
adult rat cardiomyocytes = test: Mitochondrial permeability transition pore (mPTP) channel opening after hypoxia/reoxygenation; assay type: cell-based; conditions: HASF (100 nM) prior to hypoxia/reoxygenation, vs control untreated samples
Experimental: FIG. 2D is a series of photomicrographs and a bar graph showing that HASF protects from mPTP channel opening and cell death after ischemia and reperfusion. Adult rat cardiac myocytes were cold-loaded with fluorescent calcein and CoCl2 and subjected to 3-5 h of ischemia followed by 30-60 min reperfusion. Mitochrondria were counterstained with TMRM. Under these conditions increased calcein intensity (green) indicate the entrapped calcein in mitochrondria which is due to reduction of open mPTP channels. Upper panel: Representative images of cells subjected to 3 h ischemia, 60 min reperfusion and cells treated with 100 nM HASF prior to 3 h ischemia, 60 min reperfusion. Lower panel: Quantitative fluorescence analysis of images represented above. The percentage of Calcein intensity was normalized to mitotracker, mitochondrial, intensity and the value was inverted and presented as of mPTP channel opening. Data are presented as means±stdev of values estimated from 8 images per condition.
FIG. 4D is a bar graph and a photomicrograph showing the effect of recombinant protein, HASF on mPTP channel as imaged by confocal microscopy. […] The presence of PKCepsilon inhibitor peptide caused the opening of the mPTP channel as observed by decreased (quenched) calcein intensity. The bar graph depicts measured fluorescence of calcein versus mitotracker intensity under different conditions. […]

[1] = system: rat myocardial infarction, peri-infarct region; test: In vivo ischemia/reperfusion injury, TUNEL staining; conditions: 1 μg intramyocardial, 30 min ischemia/24 h reperfusion
Experimental: FIG. 5B is a series of photographs and a bar graph showing TUNEL staining in control or HASF injected animals from groups described above to detect in vivo apoptosis of cardiomyocytes. Serial cyrosections of 5 μm thick were made immediately below the ligation area, 10 sections for each heart were analyzed, with N=8 rats per group. Sections were counterstained with hematoxylin. Total number of dark-brown color stained apoptotic nuclei were counted and added up blindly in 10 randomly taken fields within the peri-infarct region in each group.
Female Sprague-Dawley rats were used for all in vivo experiments. A midsternal thoracotomy was performed to expose the anterior surface of the heart after anesthesia. The proximal left […] coronary artery (LAD) was identified and a 6.0 suture (Ethicon) was placed around the artery and surrounding myocardium. […]
For TUNEL staining (DeadEnd Colometric TUNEL System, Promega) after 30 min ischemia/24 h reperfusion, serial cyrosections of 5 μm thick were made immediately below the ligation area, 10 sections for each heart were analyzed, with 8 rats in each group. […] Total number of dark-brown color stained apoptotic nuclei were counted and added up blindly in 10 randomly taken fields within the peri-infarct region in each group.

B1: HASF: Hypoxia regulated Akt MSC Factor, secreted protein encoded by C3orf58; recombinant human protein without N-signal sequence, SEQ ID NO:1 or 2 (protein, UniProt Q8NDZ4 36-430, looked up)
Divergent protein kinase …: LASWQRNELTDRRFLQLNKCPACFGTSWCRRFLNGQVVFEAWGRLRLLDFLNVKNVYFAQYGEPREGGRRRVVLKRLGSQRELAQLDQSICKRATGRPRCDLLQAMPRTEFARLNGDVRLLTPEAVEGWSDLVHCPSQRLLDRLVRRYAETKDSGSFLLRNLKDSERMQLLLTLAFNPEPLVLQSFPSDEGWPFAKYLGACGRMVAVNYVGEELWSYFNAPWEKRVDLAWQLMEIAEQLTNNDFEFALYLLDVSFDNFAVGPRDGKVIIVDAENVLVADKRLIRQNKPENWDVWYESKFDDCDKEACLSFSKEILCARATVDHNYYAVCQNLLSRHATWRGTSGGLLHDPPSEIAKDGRLEALLDECANPKKRYGRFQAAKELREYLAQLSNNVR
modifications: 6xHis tag
Adult rat cardiomyocytes
  mPTP channel opening: reduced compared to control untreated samples
[1]
  reduction of the number of TUNEL positive nuclei: ~69%
